Reference: the nanobody polyreactivity screen of Harvey et al. (2022)

Test: yeast display, Sf9 membrane polyspecificity reagent, FACS + sequencing; frameworks hold sequencing errors
Summary of the method: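 Nanobodies came from a synthetic yeast display library in Saccharomyces cerevisiae BJ5465, induced with galactose for 36–48 hours and stained for 1 hour at 4 °C with 10% biotinylated, detergent-solubilized Sf9 membrane reagent. Cells were enriched on streptavidin microbeads and then FACS-sorted, with low and high (top ~1%) gates set on anti-HA fluorescence for expression and streptavidin fluorescence for reagent binding. Each polyreactivity label reflects the gate a clone came from. Genes were amplified by colony PCR, sequenced by MiSeq 2 × 250 and filtered by CDR length.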

| Sequence | polyreactivity (PSR sort gate) |
| --- | --- |
| QVQLVESGGGLVQAGGSLRLSCAASGITFSYYALGWYRQAPGKERELVAVISAGGGTTYYADSVKGRFTISRDNAKNTVYLQMNSLKPEDTAVYYCAVKIVVWWGEYDYWGQGTQVTVSS | high polyreactivity |
| QVQLVESGGGLVQAGGSLRLSCAASGITFTDYAMGWYRQAPGKERELVAAISSRGGSTYYADSVQGRFTISRDNAKNTVYVQMNSLKPEDTAVHYCNARFVRRGSGYDYWGQGTQVTVSS | high polyreactivity |
| QVQLVESGGGLVQAGGSLRLSCAASGITFTGNAMGWYRQAPGKERELVAAISNRGGSTYYADSVKGRFTISRDNAKNTVYLQMNSLKPEDTAVYYCRTSTPRRVSGNSWGQGTQVTVSS | high polyreactivity |
| QVQLVESGGGLVQAGGSLRLSCAASGITFTGNAMGWYRQAPGKERELVAAISNRGGSTYYADSVKGRFTISRDNAKNTVYLQMNSLKPEDTAVYYCRTSTPRRVSGNYWGQGTQVTVTS | high polyreactivity |
| QVQLVESGGGLVQAGGSLRLSCAASGITFTGYAMGWSRQAPGKERELVAAISKRGARTYYADSVKGRFTNSRDNAKNTVYIQMNSLKPEDTAVYYCAADSTAQDIAGLYYWGQGTQVTVSS | high polyreactivity |
| QVQLVESGGGLVQAGGSLRLSCAASGITFTGYAMGWYRQAPGKERELVAAITWSSGSTYYADSVKGRFTISRDNAKNTVYLQMNSLKPEDTAVYYCNAGYWYDGPDYIPEYDYWGQGTQVTVSS | low polyreactivity |
| QVQLVESGGGLVQAGGSLRLSCAASGITFTVNAMGWYRQAPGKERELVAAITYSGGNTYYADSVKGRFTISRDTAKNTVYLQMNSLKPEDTAVYYCAADNWPWPEKPDKSILYDYWGQGTQVTVSS | low polyreactivity |
| QVQLVESGGGLVQAGGSLRLSCAASGITFTVNSMGWYRQAPAKERELVAAISNDGSTYYADSVKGRFTISRDNAKNSVYLQMNRLKTEDTAVYYCAADTWDVFGPYGYDYWGQGTQVTVSS | low polyreactivity |
| QVQLVESGGGLVQAGGSLRLSCAASGITFTVYAMGWYRQATRKERELVAAITSTGSTNYADSVKGLFTISRDNAKNTVYLQMNSLKPEDTAVYYCAADRQITVYAFDYWGQGTQVTVSS | low polyreactivity |
| QVQLVESGGGLVQAGGSLRLSCAASGITFTYNAMGWYRPAPGKERELVAAITWSGGSTFYADSVKGRFTISRDNAKNTVYLQMNSLKPEDTAVYYCARDTELYDRWLDYWGQGTQVTVSS | low polyreactivity |
| QVQLVESGGGLVQAGGSLRLSCAASGITFTYNAMGWYRQAPGKERELVAAITWSGGSTYYADSVKGRFTISRDNAKYTVYLQMNSLKPEDTAVYYCNAKHFAYSVAHPYLRYGYDYWGQGTQVTVSS | low polyreactivity |
| QVQLVESGGGLVQAGGSLRLSCAASGITFTYYAMGWYRQAPGKERELVAAINWNGGSTYYADSVKGRFTISRDNAKNTVYLQMNSLKPEDTAVYYCAAEFYIYGFVKFDYWGQGTQVTVSS | high polyreactivity |
| QVQLVESGGGLVQAGGSLRLSCAASGITFTYYAMGWYRQAPGKERELVASITIGGGSTYYADSVKGRFTISRDNAKKTVYLQLNSLKPEYTAVYYCNAAFSVRHLYRYDYWGQGTQVTVSL | low polyreactivity |
| QVQLVESGGGLVQAGGSLRLSCAASGITFTYYARGWYRQAPGKEMELVAAISWSGGSTYYADSVKGRFTISRDNAKNTVYLQMNSLKPEDTAVYYCAATFSRFAYYYWGQGTQVTVSS | high polyreactivity |
| QVQLVESGGGLVQAGGSLRLSCAASGITFVANAMGWYRQAPGKERELVAAISYSGASTYADSVKGRFTISRDNAKNTVYLQMNSLKPEDTAVYYCAKDGPYTYGREIYVYWGQGTLVTVSS | low polyreactivity |
| QVQLVESGGGLVQAGGSLRLSCAASGITFVANAMGWYRQAPGKETELVAGITQTGGSTYYADSVKGRFTISRDKAKNTVYLQMNSQKPEDTAVYYCAATYRRLRYGKLYYYWGQGTQVTVSS | high polyreactivity |
| QVQLVESGGGLVQAGGSLRLSCAASGITFVDNAMGWYRQAPGKERELVAAISFSGDTTYYADSVKGRFTISRDNEKNTVYLQMNSLKPEDTAVYYCAAEYYYTWVYQYWEMDYWGQGTQVTVSS | low polyreactivity |
| QVQLVESGGGLVQAGGSLRLSCAASGITFVDYAMGWYRQAPGKEWELVAAITTGGSTNYADSVKGRFTISRDNAKNTVYLQMNRLKPEDTAVYYCNKRPVILYDYWGQGTQVTVSS | low polyreactivity |
| QVQLVESGGGLVQAGGSLRLSCAASGITFVFNVMGWSRQAPGKERELVADIRSGGTTNYADSVKGRFTISRDNAKNTVYIQMNSLKPEDTAVYYCAKEKYDYVGDYEVDYWGQGTQVTVSS | low polyreactivity |
| QVQLVESGGGLVQAGGSLRLSCAASGITFVFYTMGWYRQAPGKERELVAAITSSGVRTSYADSVKGRFTISRDNAKNTVYLQMNSLKPEDTAVYYCAAKPTYVHKPGYNYWGQGTQVTVSS | high polyreactivity |
| QVQLVESGGGLVQAGGSLRLSCAASGITFVGNAMGWYRQAPGKERELVAAITSSGSTHYADSVKGRFTISRDNAKNTVYLQMNSLKPEDTAVYYCAAVTRFSGGLYYYWGQGTQVTVSS | high polyreactivity |

| Sequence | polyreactivity (PSR sort gate) |
| --- | --- |
| QVQLVESGGGLVQAGGSLRLSCAASGITFVQYAMGWYRQAPGKERELVAAITSDGRTYYADSVKGRFTISRDNAKNTVYLQMNSLKREDTAVYYCAADVWRYTAYGGAYRRDYWGQGTQVTVSS | low polyreactivity |
| QVQLVESGGGLVQAGGSLRLSCAASGITFVRNAMGWYRQAPGKERELVAAISGRGGITYYADSVKGRFTISRDNAKNTVYFQMNSLKPEDTAVYYCAASSAGSSYNYWGQGSQVTVSS | high polyreactivity |
| QVQLVESGGGLVQAGGSLRLSCAASGITFVRYAMGWYRQAPGKERELVATITRRGGSTYYADSVKGRFTISRDNAKNTVYLQMNSLKPEDTAVYYCAADAYIWLYTDFPAYDYWGQGTHVTVSS | high polyreactivity |
| QVQLVESGGGLVQAGGSLRLSCAASGITFVRYTMGWYRQAPGKERQFVAGITRGGSTCYADSVKGRFTISRDNAKNTVYLQMNSLKPEDTAVYYCAARPRFLRASVEYDYWGQGTQVTVSS | high polyreactivity |
| QVQLVESGGGLVQAGGSLRLSCAASGITFVVYTMGWYRQAPGKERELVASISISGDSTNYAESVKGRFTISRDNAKNTVYLQMNILKPEDTAVYYCNAAFYHVQFPWIAYEYWGQGTQVTVSP | low polyreactivity |
| QVQLVESGGGLVQAGGSLRLSCAASGITFVYYAMGWYRQAPGKERELVAAISKNGGSTYYADSVKGRFTISRDNAMNTVYLQMNSLKPEDTAVYYCAAEEGYPWVRYNYWGQGPQVTVSS | high polyreactivity |
| QVQLVESGGGLVQAGGSLRLSCAASGITFWANAMGWYRQAPGKERELVASIRSSGGSTYYADSVKGRFTISRDNAKNTVYLQMNSLKPEDTAVYYCNARLGPLYVYRQYDSWGQGTQVTVSS | low polyreactivity |
| QVQLVESGGGLVQAGGSLRLSCAASGITFWDYAMGRYRQAPGKERELVAGISTRGGSTYYADSVKGRFTISRDNAKNTVYLQMNSLKPEDTAVYYCAADAQTSFGLGWGSDYDYWGQGTQVTVSS | low polyreactivity |
| QVQLVESGGGLVQAGGSLRLSCAASGITFWEYAMGWYRQAPGKERELVAAISRSGGSTYYADSVKGRFTISRDTAKNTVYLQMNSLKPEDTAVYYCAAYTRRPIYDYWGQGTQVTVSS | high polyreactivity |
| QVQLVESGGGLVQAGGSLRLSCAASGITFWEYAMGWYRQAPWKERELVAAISRSGGSTYYADSVKGRFTISRDNAKNTVYLQMNSLKPEDTAVYYCADETRRPIYDYWGQGTQVTVSS | high polyreactivity |
| QVQLVESGGGLVQAGGSLRLSCAASGITFWKYAMGWYRQAPGKERELVAAISGRGGSTYYADSVKGRFTISRDNAKNTVYLQMNSLKPEDTAVYSCDTRTYYRYPVFYWGQGTQVTVSS | high polyreactivity |
| QVQLVESGGGLVQAGGSLRLSCAASGITFWKYTMGWYIHAPGKERELVASITWSGGSTYYADSVKGRFTISRDNAKNTVYLQMNSLKPEDTAVYYCNAEYLRIDLDYWGQGTQVTVSS | low polyreactivity |
| QVQLVESGGGLVQAGGSLRLSCAASGITFWLYAMGWSRQAPGKERELVAGIDNGGSTTYADSVKGRFTISRDNAKNTVYLQMNSLNPEDTAVYYCAATFEWDPVYPYNGFIYDYWGQGTQVTVSS | high polyreactivity |
| QVQLVESGGGLVQAGGSLRLSCAASGITFWTYAMGGYRQAPGKERELVAAISKTVGSTFYADSVKGRFTISRDNAKNTVYLQMNSLKPEDTEVYYCNARRRRTVGWQYNYWGQGTQVTVSS | high polyreactivity |
| QVQLVESGGGLVQAGGSLRLSCAASGITFWVYVMGWYRQAPGKEREFVADISSGAGTTYYADSVKGRFTISRDNAKNTVYLQMNSLKPEDTAVYYCAARRWWPQWYDYWGQGTQVTVSS | high polyreactivity |
| QVQLVESGGGLVQAGGSLRLSCAASGITFWYYAMGWYRQAPGKERELVAAINWSGGSTYYADSVKGRFTISRDNAKNTVYLQMNSLKPEDTAVYYCAAEFGLWPYEYGYWGQGTQVTVSS | high polyreactivity |
| QVQLVESGGGLVQAGGSLRLSCAASGITFWYYAMGWYRQAPGKERELVAAITGGDSTNYADSVKGRFTISRDNAKNTVYLQMNSLKPEDTAVYYCNAEGSYEGYDDYWGHGTQVTVSS | high polyreactivity |
| QVQLVESGGGLVQAGGSLRLSCAASGITFWYYVMGWYRQAPGKERELFAAITLSGGSTYYADSVKGRFTISRDNAKNTVYLQMNSLKPEDTAVYYCNADGSAGIRGKYDYWGQGTQVTVSS | low polyreactivity |
| QVQLVESGGGLVQAGGSLRLSCAASGITFYEYAMGWYRQAPGKEREFVAAIDDGDSSTYYADSVKGRFTISRDNAKNTVYLQMNSLKPEDTAVYFCNADPYYDYSLNWGDYWGQGTQVTVSS | low polyreactivity |
| QVQLVESGGGLVQAGGSLRLSCAASGITFYEYAMGWYRQAPGKEREFVAAIDDGDSSTYYADSVKGRFTISRDNGKNTVYLQMNTLKPEDSAVFDCNADPYYDYSLNWGDYWGQGTQVTVSS | low polyreactivity |
